B1: Non-structural protein 1 (Influenza A virus (strain A/Puerto Rico/8/1934 H1N1)), P03496 (parent)
chain: MDPNTVSSFQVDCFLWHVRKRVADQELGDAPFLDRLRRDQKSLRGRGSTLGLDIETATRAGKQIVERILKEESDEALKMTMASVPASRYLTDMTLEEMSRDWSMLIPKQKVAGPLCIRMDQAIMDKNIILKANFSVIFDRLETLILLRAFTEEGAIVGEISPLPSLPGHTAEDVKNAVGVLIGGLEWNDNTVRVSETLQRFAWRSSNENGRPPLTPKQKREMAGTIRSEV

Variants of: B1
Conditions: with p85b_human PIK3R2, O00459
Chain of p85b_human PIK3R2, O00459 (O00459 whole entry): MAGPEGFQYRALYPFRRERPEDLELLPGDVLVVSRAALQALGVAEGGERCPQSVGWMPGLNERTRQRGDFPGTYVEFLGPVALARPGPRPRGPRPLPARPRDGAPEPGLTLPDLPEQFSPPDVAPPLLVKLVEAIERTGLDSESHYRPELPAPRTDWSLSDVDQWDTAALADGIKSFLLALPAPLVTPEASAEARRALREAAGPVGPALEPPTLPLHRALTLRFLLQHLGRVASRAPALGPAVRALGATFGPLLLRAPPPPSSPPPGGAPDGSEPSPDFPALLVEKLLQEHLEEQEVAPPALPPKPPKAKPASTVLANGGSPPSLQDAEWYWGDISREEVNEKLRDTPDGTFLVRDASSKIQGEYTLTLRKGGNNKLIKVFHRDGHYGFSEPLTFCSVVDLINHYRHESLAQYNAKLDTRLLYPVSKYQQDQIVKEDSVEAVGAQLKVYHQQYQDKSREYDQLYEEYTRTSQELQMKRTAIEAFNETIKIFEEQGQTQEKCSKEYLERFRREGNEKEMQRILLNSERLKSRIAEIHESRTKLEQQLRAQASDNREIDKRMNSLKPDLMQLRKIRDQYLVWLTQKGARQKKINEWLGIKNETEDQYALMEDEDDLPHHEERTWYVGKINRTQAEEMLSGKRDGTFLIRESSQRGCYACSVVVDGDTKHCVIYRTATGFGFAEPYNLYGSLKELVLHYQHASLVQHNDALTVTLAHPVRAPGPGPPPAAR

Variant | effect of a mutation on the interaction
Y89F | disrupting interaction strength
M93A | disrupting interaction strength

Variants of: B1
Conditions: with p85b_bovin PIK3R2, P23726
Chain of p85b_bovin PIK3R2, P23726 (P23726 whole entry): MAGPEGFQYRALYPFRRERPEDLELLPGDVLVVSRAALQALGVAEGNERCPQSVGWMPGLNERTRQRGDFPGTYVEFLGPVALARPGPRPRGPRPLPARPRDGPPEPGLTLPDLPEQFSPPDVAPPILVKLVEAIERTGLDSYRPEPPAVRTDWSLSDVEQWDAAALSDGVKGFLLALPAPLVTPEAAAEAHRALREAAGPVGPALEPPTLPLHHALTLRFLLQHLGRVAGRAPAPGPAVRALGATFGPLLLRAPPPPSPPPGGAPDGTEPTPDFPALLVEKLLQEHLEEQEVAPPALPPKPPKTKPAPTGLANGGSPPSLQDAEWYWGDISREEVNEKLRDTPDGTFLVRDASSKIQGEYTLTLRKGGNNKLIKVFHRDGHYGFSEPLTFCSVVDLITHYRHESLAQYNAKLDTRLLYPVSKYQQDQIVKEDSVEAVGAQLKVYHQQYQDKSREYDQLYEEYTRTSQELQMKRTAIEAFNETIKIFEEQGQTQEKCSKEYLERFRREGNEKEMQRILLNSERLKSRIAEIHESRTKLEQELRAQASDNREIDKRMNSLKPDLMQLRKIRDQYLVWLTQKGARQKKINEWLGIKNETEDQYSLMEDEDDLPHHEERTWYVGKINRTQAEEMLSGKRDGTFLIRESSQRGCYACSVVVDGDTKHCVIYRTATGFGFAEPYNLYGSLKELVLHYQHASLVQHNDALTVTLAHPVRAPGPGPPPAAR

Variant | effect of a mutation on the interaction
Y89F | disrupting interaction strength
